Changes are numbered by the printed parent chain. Blank lines part the entries; values can stand above or below the molecule they belong to.
Key:
human EphA4 = molecular target: T1, human EphA4 (Homo sapiens, UniProt P54764); experiment: Affinity of humanized antibodies by SPR (Biacore T200); format: binding; details: human EphA4 extracellular region-SEAP-His; for ka / kd: 1:1 binding model; for Kd: KD=kd/ka
T1 construct: made in house; not restated for the human SEAP-His protein
Description: The binding affinity of each anti-EphA4 monoclonal humanized antibody obtained in Example 16 for human EphA4 was determined by surface plasmon resonance (SPR) using Biacore T200 (GE Healthcare). First, for the assay of antibody A, a rat anti-mouse IgG1 antibody produced with a conventional method by immunizing rat with mouse IgG1 antibody was immobilized on sensor chip CM5. The immobilization of the rat anti-mouse IgG1 antibody on sensor chip CM5 was performed by the amine coupling method using N-hydroxysuccinimide (NHS) and N-ethyl-N′-(3-dimethylaminopropyl)carbodiimide hydrochloride (EDC). Ethanolamine was used in blocking (the sensor chip and the reagents for immobilization were all manufactured by GE Healthcare). The antibody was diluted with a buffer solution for immobilization (10 mM sodium acetate, pH 4.5) and immobilized on the sensor chip according to the protocol attached to Biacore T200. For the assay of each humanized monoclonal antibody, a protein A chip (GE Healthcare, 29-1383-03) was used. Antibody A or the humanized monoclonal antibody was diluted with a running buffer solution HBS-EP (GE Healthcare), injected onto only flow cell 2 for 120 seconds, and captured (captured amount: approximately 30 to 60 RU). Subsequently, human EphA4 extracellular region-SEAP-His protein serially diluted in the range of 50, 16.7, 5.6, 1.9, and 0.6 nM using HBS-EP was sequentially added from the lower toward higher concentration sides without regeneration operation. Binding reaction curves were sequentially observed at the time of the addition (association phase, for 120 sec) and after the completion of the addition (dissociation phase, for 900 sec). After the completion of each observation, the sensor chip was regenerated by the addition of 3 M MgCl2 (for 60 sec) or 10 mM Glycine-HCl pH 1.5 (for 30 sec). The obtained binding reaction curves were subjected to fitting analysis with 1:1 binding models using software BIA evaluation attached to the system to calculate the affinity (KD=kd/ka) for human EphA4 (Table 6).

human EphA1 = molecular target: T2, human EphA1 (Homo sapiens, UniProt P21709); experiment: Selectivity ELISA of humanized antibodies for human Eph receptor; format: binding; details: coated protein 1 nM
T2 construct: a protein of the extracellular region of each human Eph receptor fused with the SEAP protein and the His tag; made in house; host or cells: Expi293F cells (culture supernatant)
T2 sequence (P21709 26-547 limits assumed): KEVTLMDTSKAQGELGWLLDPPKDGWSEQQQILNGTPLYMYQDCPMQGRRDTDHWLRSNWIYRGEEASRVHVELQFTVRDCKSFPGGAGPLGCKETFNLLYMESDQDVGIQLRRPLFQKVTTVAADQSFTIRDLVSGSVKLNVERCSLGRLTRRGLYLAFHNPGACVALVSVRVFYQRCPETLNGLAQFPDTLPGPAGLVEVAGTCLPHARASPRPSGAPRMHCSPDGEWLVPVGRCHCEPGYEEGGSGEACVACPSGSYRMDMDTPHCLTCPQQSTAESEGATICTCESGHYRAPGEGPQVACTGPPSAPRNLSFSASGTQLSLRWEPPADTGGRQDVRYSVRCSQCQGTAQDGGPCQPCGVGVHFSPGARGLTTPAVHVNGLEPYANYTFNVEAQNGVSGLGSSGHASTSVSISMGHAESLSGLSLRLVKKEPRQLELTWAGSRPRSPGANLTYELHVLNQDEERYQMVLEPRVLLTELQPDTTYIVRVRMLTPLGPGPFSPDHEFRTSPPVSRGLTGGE
Source text: According to the method described in Example 7, a DNA sequence encoding the signal sequence and the extracellular region of each human Eph receptor (EphA1, EphA2, EphA3, EphA4, EphA5, EphA6, EphA7, EphA8, EphA10, EphB1, EphB2, EphB3, EphB4, and EphB6) was amplified by RT-PCR using tissue-derived total RNA and cloned into a pENTR1A vector (Invitrogen/Life Technologies) having a DNA sequence encoding SEAP protein and histidine tag. Next, the DNA sequence encoding the signal sequence and the extracellular region of each human Eph receptor, SEAP protein, and histidine tag was transferred to a pcDNA3.1_rfcB vector through LR reaction using Gateway System (Invitrogen/Life Technologies) to construct a vector for the expression of a protein of the extracellular region of each human Eph receptor fused with the SEAP protein and the His tag (referred to as “Eph receptor extracellular region-SEAP-His protein”) (this vector is referred to as “Eph receptor extracellular region-SEAP-His protein expression vector”).
Next, each human Eph receptor extracellular region-SEAP-His protein expression vector was transferred to Expi293F cells (Gibco/Thermo Fisher Scientific) using Expi293 expression system (Gibco/Thermo Fisher Scientific). After incubation (5% CO2, 37° C.) for 5 days, the culture supernatant was recovered and centrifuged at 1500 rpm at room temperature for 5 minutes. The centrifugation supernatant was filtered through a 0.45-μm filter (Merck Millipore).
Each anti-EphA4 monoclonal humanized antibody obtained in Example 16 was evaluated for its binding activity against each human Eph receptor according to the following steps.
Each well of a 96-well plate (Nunc) was coated with a rabbit anti-6-His antibody (Bethyl Laboratories). Each well was […] After washing with 0.05% Tween 20/PBS (Nacalai Tesque) three times, the SEAP-His protein of human EphA1, EphA2, EphA3, EphA4, EphA5, EphA6, EphA7, EphA8, EphA10, EphB1, EphB2, EphB3, EphB4, or EphB6 was added (final concentration: 1 nM) to each well and incubated at room temperature for 1 hour. After washing three times, the humanized antibody was added to each well and incubated at room temperature for 1 hour. After washing three times, a horseradish peroxidase-labeled donkey […] IgG antibody (Jackson ImmunoResearch Laboratories) was added thereto and incubated at room temperature for 1 hour. After washing three times, TMB Microwell Peroxidase Substrate System (Kirkegaard & Perry Laboratories (KPL)) was added to each well. After confirmation of moderate color development, an equal amount of a reaction stopping solution (1N H2SO4, Wako Pure Chemical Industries) was added to each well. The absorbance at 450 nm was read using a microplate reader (Thermo Fisher Scientific).

T1 sequence (P54764 20-547): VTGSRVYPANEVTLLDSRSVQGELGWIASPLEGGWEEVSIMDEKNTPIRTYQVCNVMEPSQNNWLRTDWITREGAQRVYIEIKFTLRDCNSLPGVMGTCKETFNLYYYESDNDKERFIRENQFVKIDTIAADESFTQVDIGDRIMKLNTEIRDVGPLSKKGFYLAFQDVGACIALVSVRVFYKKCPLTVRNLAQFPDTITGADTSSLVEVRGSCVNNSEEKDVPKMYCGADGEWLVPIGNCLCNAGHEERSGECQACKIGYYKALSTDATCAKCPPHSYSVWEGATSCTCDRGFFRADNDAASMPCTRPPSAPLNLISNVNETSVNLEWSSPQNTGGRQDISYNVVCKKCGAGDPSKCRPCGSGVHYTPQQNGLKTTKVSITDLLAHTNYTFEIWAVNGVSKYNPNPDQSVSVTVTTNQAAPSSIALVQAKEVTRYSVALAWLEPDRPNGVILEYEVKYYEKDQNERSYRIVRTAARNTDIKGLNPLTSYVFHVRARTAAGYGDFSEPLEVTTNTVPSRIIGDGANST

B3: 84 (antibody, V domains shown)
VL: DIQMTQSPSSLSASVGDRVTITCRASENIYRNLAWYQQKPGKAPKLLLYAATNLADGVPSRFSGSGSGTDYTLTISSLQSEDFATYYCQHFWGTPWTFGQGTKVEIK
VH: QVQLVQSGSELKKPGASVKVSCKASGYTFTDYSMHWVRQAPGQGLEWMGWINTETGEPTYADDFKGRFVFSLDTSVSTAYLQISSLKAEDTAVYYCARIPLYYYGSRYWYFDVWGQGTTVTVSS
modifications: constant regions without entry; synthetic humanized antibody light chain variable region sequence; synthetic humanized antibody heavy chain variable region sequence
ka (human EphA4): 350000 M⁻¹ s⁻¹ | kd (human EphA4): 0.00056 s⁻¹ | Kd (human EphA4): 1.7 nM | hEphA1-SEAP-: absorbance at 450 nm, percentage with respect to hEphA4-SEAP-His as 100% (human EphA1): 5.2%

B4: 156 (antibody, V domains shown)
VH: B3 VH with V2I, E46K, D62Q, D63G, K65T
VL: B3 VL with K45Q, S80P
modifications: synthetic humanized antibody heavy chain variable region sequence; synthetic humanized antibody light chain variable region sequence
hEphA1-SEAP-: absorbance at 450 nm, percentage with respect to hEphA4-SEAP-His as 100% (human EphA1): 5.7%

B6: 136 (antibody, V domains shown)
VH: B3 VH with E46K
VL: EIVMTQSPATLSVSPGERATLSCRASENIYRNLAWYQQKPGQSPRLLIYAATNLADGIPARFSGSGSGTEYTLTISSLQSEDFAVYYCQHFWGTPWTFGQGTKVEIK
modifications: synthetic humanized antibody heavy chain variable region sequence; synthetic humanized antibody light chain variable region sequence
hEphA1-SEAP-: absorbance at 450 nm, percentage with respect to hEphA4-SEAP-His as 100% (human EphA1): 5.3%

B7: 82 (antibody, V domains shown)
VL: B3 VL
VH: B3 VH with E46K, D62Q, D63G, K65T
modifications: constant regions without entry; synthetic humanized antibody light chain variable region sequence; synthetic humanized antibody heavy chain variable region sequence
ka (human EphA4): 290000 M⁻¹ s⁻¹ | kd (human EphA4): 0.00046 s⁻¹ | Kd (human EphA4): 1.6 nM | hEphA1-SEAP-: absorbance at 450 nm, percentage with respect to hEphA4-SEAP-His as 100% (human EphA1): 5.4%

B9: 83 (antibody, V domains shown)
VL: B3 VL
VH: B3 VH with V2I, E46K, D62Q, D63G, K65T
modifications: constant regions without entry; synthetic humanized antibody light chain variable region sequence; synthetic humanized antibody heavy chain variable region sequence
ka (human EphA4): 290000 M⁻¹ s⁻¹ | kd (human EphA4): 0.00054 s⁻¹ | Kd (human EphA4): 1.9 nM | hEphA1-SEAP-: absorbance at 450 nm, percentage with respect to hEphA4-SEAP-His as 100% (human EphA1): 5.7%

Other lines, results leading:

ka (human EphA4): 420000 M⁻¹ s⁻¹ | kd (human EphA4): 0.00025 s⁻¹
B1: antibody A: mouse anti-EphA4 monoclonal antibody, IgG1/κ; heavy chain variable region SEQ ID NO: 11, light chain variable region SEQ ID NO: 13 (antibody, listed as Mus musculus, V domains shown)
VH: QIQLVQSGPELKKPGETVKISCKASGYTFTDYSMHWVKQAPGKGLKWMGWINTETGEPTYADDFKGRFAFSLETSASTAYLQINNLKNEDTATYFCARIPLYYYGSRYWYFDVWGAGTTVTVSS
VL: DIQMTQSPASLSVSVGETVTITCRASENIYRNLAWYQQKQGKSPQLLVYAATNLADGVPSRFSGSGSGTQYSLKINSLQSEDFGSYYCQHFWGTPWTFGGGTKLEIK

ka (human EphA4): 340000 M⁻¹ s⁻¹ | kd (human EphA4): 0.00037 s⁻¹ | Kd (human EphA4): 1.1 nM | hEphA1-SEAP-: absorbance at 450 nm, percentage with respect to hEphA4-SEAP-His as 100% (human EphA1): 5.7%
B2: 69 (antibody, V domains shown)
VH: B3 VH with V2I, E46K
VL: B3 VL with L48V, S80P
modifications: synthetic humanized antibody heavy chain variable region sequence; synthetic humanized antibody light chain variable region sequence

ka (human EphA4): 340000 M⁻¹ s⁻¹ | kd (human EphA4): 0.00054 s⁻¹ | Kd (human EphA4): 1.6 nM | hEphA1-SEAP-: absorbance at 450 nm, percentage with respect to hEphA4-SEAP-His as 100% (human EphA1): 4.4%
B5: 81 (antibody, V domains shown)
VL: B3 VL
VH: B3 VH with D62Q, D63G, K65T
modifications: constant regions without entry; synthetic humanized antibody light chain variable region sequence; synthetic humanized antibody heavy chain variable region sequence

ka (human EphA4): 310000 M⁻¹ s⁻¹ | kd (human EphA4): 0.0005 s⁻¹ | Kd (human EphA4): 1.6 nM | hEphA1-SEAP-: absorbance at 450 nm, percentage with respect to hEphA4-SEAP-His as 100% (human EphA1): 5.0%
B8: 85 (antibody, V domains shown)
VL: B3 VL
VH: B3 VH with E46K
modifications: constant regions without entry; synthetic humanized antibody light chain variable region sequence; synthetic humanized antibody heavy chain variable region sequence

From patent US10428140B2, “Anti-EphA4 antibody” (EISAI R&D MANAGEMENT CO., LTD., priority 2015, dated 2019)
